Source: patent publication US20260217797A1 (Takeda / Millennium, published 2026)
Where a chain is given by its changes, count along the chain named. Read-outs that look alike come from different tables or passages of the source.

B1: A-22 (antibody, V domains shown)
VH: not shown
VL: EIVLTQSPGTLSLSPGERATLSCRASQTVRSDLAWYQQKPGQAPRLLIYGASTRATDISDRFSGSGSGTEFTLTISSLQSEDFAVYYCQQYYEWPPHSDSFGGGTKVEIK
B2: A-16 (antibody, V domains shown)
VH: QVQLVESGGGLVQPGRSLRLSCAASGFTFDDYAMHWVRQAPGKGLEWVSGISWNSGTIGYADSVKGRFIISRDNAKNSLYLQMNSLRGEDMALYYCGKDRKREDPSLGGMDVWGQGTTVTVSS
VL: SYELTQPPSVSVAPGQTARITCGGNNIGSKSVHWYQQKPGQAPVLVVYDDTDRPSGIPERFSGSNSGNTATLTISRVEAGDEADYYCQVWDSSSDHYVFGTGTKLTVL
B3: A-9 (antibody, V domains shown)
VH: EVQLVESGGGLVKPGRSLRLSCAASGFTFADYAMSWFRQAPGKGLEWVGFIRSKPYGGTTEYAASVKGRFTISRDDSKSIAYLQMNSLKTEDTAVYYCSRDPWYCSGGDCYAVTGSWFDPWGQGTLVTVSS
VL: DIVLTQSPSSLSASVGDRVTITCQASQDIKKYLNWYQQKPGKAPKLLIYDVSNLETGVPSRFSGSGSGTDFTFTISSLQPEDVAIYYCQQYDNLPQTFGQGTKVDIK
B4: A-24.1 Fab (Fab, V domains shown)
VH: B3 VH with A33T, K54E
VL: B3 VL with V3Q, L4M, D105E
B5: A-24 Fab (Fab, V domains shown)
VH: B3 VH
VL: B3 VL with V3Q, L4M, D105E
B6: A-24.3 Fab (Fab, V domains shown)
VH: B3 VH with A33T, K54E
VL: B3 VL with V3Q, L4M, Q27R, N93Q, D105E, K107E
B7: A-6 (antibody, V domains shown)
VH: QVQLVQSGGGVVQPGRSLRLSCAASGFTFSNFAMHWVRQAPGKGLEWVAVILYDGINKYYADSVKGRFTISRGNSKNTLSLQMNSLRAEDTAVYYCARAQNYYDRSGTLQLDAFDIWGQGTMVTVSS
VL: DIVMTQSPSSLSASVGDRVTITCRASQGIRNDLGWYQQKPGKAPKLLIYAASSLQSGVPSRFSGSGSGTDFTLTISSLQPEDFATYYCLQDYNYPLTFGGGTKVEIK
B8: A-18 (antibody, V domains shown)
VH: EVQLLESGGGLVQPGGSLRLSCAASGFTFSRYWMHWVRQAPGKGLVWVSRINSDGSSTTYADSVKGRFTISRDNAKNTLYLQMNSLRAEDTAVYYCARELYYYDSRGAEEGEGWFDPWGQGTLVTVSS
VL: QSVLTQPPSVSGAPGQRVTISCTGISSNIGAGYDVHWYQQLPGTAPKLLIYGNSNRPSGVPDRFSASKSGTSAPLAITGLQAEDEADYYCQSSDRSLSGSVFGTGTKLTVL

Assays:
[1] = target: T1, SARS-CoV-2 wild type spike protein (on reporter virus particles) (SARS-CoV-2, UniProt P0DTC2 14-1273); assay: cell-based or functional assay
[2] = target: T1, SARS-CoV-2 wild type spike protein (on …); assay: cell-based or functional assay; remark: listed apart in the source
[3] = target: T1, SARS-CoV-2 wild type spike protein (on …); assay: cell-based or functional assay; remark: listed apart in the source
[4] = target: T1, SARS-CoV-2 wild type spike protein (on …); assay: cell-based or functional assay; remark: listed apart in the source
[5] = target: SARS-CoV-2 WT RBD (SARS-CoV-2, UniProt P0DTC2 319-541); assay: Octet BLI single point, monovalent
[6] = target: T2, SARS-CoV1 Spike [change] (SARS-CoV-1, UniProt P59594 14-667); assay: Octet BLI, IgG, monovalent
[7] = target: T3, SARS-CoV-2 Spike S1-His (SARS-CoV-2, UniProt P0DTC2 16-685); assay: Octet BLI, IgG, monovalent
[8] = target: T1, SARS-CoV-2 wild type spike protein (on …); assay: cell-based or functional assay; remark: listed apart in the source
[9] = target: T2, SARS-CoV1 Spike [change]; assay: Octet BLI, IgG, monovalent; remark: listed apart in the source
[10] = target: T3, SARS-CoV-2 Spike S1-His; assay: Octet BLI, IgG, monovalent; remark: listed apart in the source
[11] = target: T4, MERS-CoV [change] (MERS-CoV, UniProt K9N5Q8 18-725); assay: Octet BLI, IgG, monovalent
T4 sequence: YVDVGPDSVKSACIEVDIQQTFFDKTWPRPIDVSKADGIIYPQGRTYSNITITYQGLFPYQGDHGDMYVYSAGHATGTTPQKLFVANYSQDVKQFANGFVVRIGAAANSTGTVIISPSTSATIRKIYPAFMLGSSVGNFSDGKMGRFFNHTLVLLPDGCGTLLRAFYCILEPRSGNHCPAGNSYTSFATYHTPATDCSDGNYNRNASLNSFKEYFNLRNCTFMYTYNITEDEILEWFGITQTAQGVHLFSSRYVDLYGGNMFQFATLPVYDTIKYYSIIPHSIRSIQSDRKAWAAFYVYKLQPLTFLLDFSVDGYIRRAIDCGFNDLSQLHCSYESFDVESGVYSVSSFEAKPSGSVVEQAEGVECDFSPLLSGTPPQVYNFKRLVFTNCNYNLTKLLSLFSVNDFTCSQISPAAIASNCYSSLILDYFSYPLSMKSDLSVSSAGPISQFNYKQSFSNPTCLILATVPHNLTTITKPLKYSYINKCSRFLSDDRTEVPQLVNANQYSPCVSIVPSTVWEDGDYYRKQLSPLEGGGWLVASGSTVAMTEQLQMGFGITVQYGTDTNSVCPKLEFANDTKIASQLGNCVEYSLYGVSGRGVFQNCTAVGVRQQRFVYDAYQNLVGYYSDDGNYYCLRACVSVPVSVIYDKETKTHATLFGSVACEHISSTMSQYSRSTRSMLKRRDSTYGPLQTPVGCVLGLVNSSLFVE

[12] = target: T1, SARS-CoV-2 wild type spike protein (on …); assay: cell-based or functional assay; remark: listed apart in the source
[13] = target: SARS-CoV-2 S Trimer (SARS-CoV-2, UniProt P0DTC2 16-1213); assay: Octet BLI, IgG, avid
[14] = target: T1, SARS-CoV-2 wild type spike protein (on …); assay: cell-based or functional assay; remark: listed apart in the source
[15] = target: T3, SARS-CoV-2 Spike S1-His; assay: Octet BLI, Fab, monovalent
[16] = target: SARS-CoV-1 spike protein (SARS-CoV-1, UniProt P59594 14-1255); assay: cell-based or functional assay
[17] = target: T1, SARS-CoV-2 wild type spike protein (on …); assay: cell-based or functional assay; remark: listed apart in the source
[18] = target: Bat coronavirus WIV16 spike protein (Bat coronavirus WIV16); assay: cell-based or functional assay

Binder | PsV neutralization IC50 [1] [µg/mL] | PsV neutralization IC90 [1] [µg/mL] | SARS2 IC50 [2] [nM] | Kd [5] [nM] | Kd [10] [nM] | binding result [11] | PsV Neut Assay IC50 [12] [nM] | Kd [13] [nM] | PsV IC50, Test 1 [14] [nM] | PsV IC50, Test 2 [14] [nM] | Kd [15] [nM] | also measured
B1 | 0.749 | 3.55 | 0.06 | 0.325 | – | – | – | – | – | – | – | WT PsV IC50 [3]: 28.8 nM; SARS2 PsV IC50 [4]: 5 nM; Kd [6]: 4.51 nM; Kd [7]: 0.244 nM
B2 | 0.057 | 0.399 | 0.61 | 2.09 | 4.85 | no binding | 1.24 | 1.15 | 0.28 | 0.54 | – | PSV IC50 [8]: 0.186 µg/mL; binding result [9]: no binding
B3 | 0.011 | 0.164 | 0.03 | – | 5.89 | no binding | 0.208 | 1 | 0.03 | 0.04 | – | binding result [9]: no binding
B4 | – | – | – | – | – | – | – | – | – | – | 0.539 | –
B5 | – | – | – | – | – | – | – | – | – | – | 2.97 | –
B6 | – | – | – | – | – | – | – | – | – | – | 0.244 | –
B7 | 0.173 | 2.03 | 0.023 | 1.18 | 3.71 | no binding | 5.85 | 1.35 | 0.12 | 2.45 | – | PSV IC50 [8]: 0.878 µg/mL; Kd [9]: 17.2 nM; PsV neutralization IC50 [16]: 1.01 µg/mL; PsV neutralization IC50 [17]: 0.015 µg/mL; PsV neutralization IC90 [17]: 0.085 µg/mL; PsV neutralization IC50 [18]: 0.074 µg/mL; PsV neutralization IC90 [18]: 16.3 µg/mL
B8 | 0.303 | 1.82 | 5.9 | 0.527 | 1.09 | no binding | 9.88 | 1.69 | 0.14 | 2.78 | – | Kd [9]: 7.43 nM; PsV neutralization IC50 [16]: 0.043 µg/mL; PsV neutralization IC90 [16]: 0.046 µg/mL; PsV neutralization IC50 [17]: 0.076 µg/mL; PsV neutralization IC90 [17]: 1.38 µg/mL; PsV neutralization IC50 [18]: 0.045 µg/mL; PsV neutralization IC90 [18]: 0.324 µg/mL
